The test system of this series is TH-positive neurons. Put plainly: Transduction of midbrain TH-positive neurons after intra-nigral lentivirus injection. To be noted: naïve rats; compared to GFP-transduced rats. The format is in vivo, rat. The procedure: A lentivirus encoding G-substrate (Lenti G-substrate) was stereotactically injected immediately dorsal to the substantia nigra in rats. The transduction efficiency of the lentivirus was then determined. Lenti G-substrate was transduced into TH-positive neurons to varying degrees depending upon the neuroanatomical level.
Rats received two 2.75 μl stereotaxic injections of either lenti-empty vector+lenti-eGFP (n=19), lenti-G substrate+lenti-eGFP (n=19), or lenti-YFP (n=14) and delivered at a rate of 0.2 μl/min using microinfusion pumps (Stoelting Co, Wood Dale, Ill.) with 10 min wait times after each injection. […]
Estimates of TH-positive neuronal number within the SN were performed using Stereo Investigator™ software (MBF Bioscience, Williston, Vt.) and stereologic principles (West et al., J. Comp. Neurol. 296: 1-22, 1990). […] For each tissue section analyzed, section thickness was assessed empirically and guard zones of 2 μm thickness were used at the top and bottom of each section. The SN was outlined under low magnification (2.5×) and approximately 50% of the outlined region was analyzed using a systematic random sampling design generated with the following stereologic parameters: grid size, 200×200 μm; counting frame size, 153×140 μm; and dissector height, 16 μm. […]

Results on one substance are retold here after US8545834B2, “G-substrate for the treatment and prevention of parkinson's disease” (The McLean Hospital Corporation, priority 2007, dated 2013).

Regarding “G-substrate: human wild type G-substrate (SEQ ID NO.: 1) overexpressed from a lentiviral vector”, the “total number of TH-positive neurons in midbrain” value is reported as “did not alter”.
